For 19 sequences, Kd results are on record in the Immune Epitope Database (IEDB).

As a reminder, the Kd is the free concentration of one partner at which half of the binding sites on the other are occupied at equilibrium, for simple one-to-one binding.

Assay in all cases: IEDB peptide-MHC binding, purified MHC/competitive/radioactivity; filed as Kd, often an IC50 or EC50 that approximates it; ≥ and ≤ were set here for values at or beyond the usual limits of such assays
Assay [1] deals with HLA-A*03:01.
Assay [2] addresses HLA-A*11:01.
In assay [3] the target is HLA-A*31:01.
Assay [4] deals with HLA-A*33:01.
The target of assay [5] is HLA-A*68:01.
Setting [6] is: source organism: Vaccinia virus WR.
[7] abbreviates: source organism: Mammarenavirus whitewaterense.
Where [8] appears, read: source organism: SARS coronavirus Tor2.
The mark [9] stands for this setting: source organism: Lassa virus Josiah.

RLNNPVILSK: the Kd in assay [1] (setting [6]) was 11.7 nM; in assay [2] (setting [6]) it was 11.9 nM; in assay [3] (setting [6]) it was 1550 nM; in assay [4] (setting [6]), at least 54900 nM; in assay [5] (setting [6]), 4490 nM.
Turning to RMLFTSTNDK, the Kd was 3.92 nM in assay [1] (setting [6]); 1.54 nM in assay [2] (setting [6]); 112 nM in assay [3] (setting [6]); 15100 nM in assay [4] (setting [6]); 35.6 nM in assay [5] (setting [6]).
Take RSCSYKIGHH: the equilibrium dissociation constant (Kd) was 3900 nM in assay [1] (setting [7]); 17200 nM in assay [2] (setting [7]); 294 nM in assay [3] (setting [7]); at least 70000 nM in assay [4] (setting [7]); at least 50900 nM in assay [5] (setting [7]).
Take RSDGYFLKIK: the equilibrium dissociation constant (Kd) in assay [1] (setting [6]) was 10400 nM; in assay [2] (setting [6]), 1560 nM; in assay [3] (setting [6]), 5500 nM; in assay [4] (setting [6]), at least 70000 nM; in assay [5] (setting [6]) it was at least 70200 nM.
Regarding RVAVNKSNK, the equilibrium dissociation constant (Kd) was 6.83 nM in assay [1] (setting [6]); 11.5 nM in assay [2] (setting [6]); 57.7 nM in assay [3] (setting [6]); at least 52000 nM in assay [4] (setting [6]); 147 nM in assay [5] (setting [6]).
For RVMANNVKK the same measures were 17.2 nM, 16.7 nM, 139 nM, at least 77700 nM and 104 nM.
For SFSNTIQSYK the same measures were 117 nM, 130 nM, 220 nM, 12200 nM and 177 nM.
In the same order, the values of SIRPRVTKQY are 884 nM, 9160 nM, 6270 nM, at least 70000 nM and 8010 nM.
Turning to SITPNNLNK, the Kd in assay [1] (setting [6]) was 866 nM; in assay [2] (setting [6]), 25.4 nM; in assay [3] (setting [6]), at least 77900 nM; in assay [4] (setting [6]), at least 77700 nM; in assay [5] (setting [6]), 1450 nM.
For the sequence SLLRSTSQK, the dissociation constant Kd was found to be 2.56 nM in assay [1] (setting [8]); 12.8 nM in assay [2] (setting [8]); 802 nM in assay [3] (setting [8]); 14700 nM in assay [4] (setting [8]); 3040 nM in assay [5] (setting [8]).
Regarding SSFIVPEFAK, the Kd in assay [1] (setting [6]) was 37.4 nM; in assay [2] (setting [6]) it was 0.534 nM; in assay [3] (setting [6]), 9400 nM; in assay [4] (setting [6]) it was 9270 nM; in assay [5] (setting [6]), 2.23 nM.
In the same order, the values of SSYIDFENTK are 629 nM, 0.158 nM, 137 nM, 392 nM and 23.5 nM.
Take SVLNDILSR: the Kd in assay [1] (setting [8]) was found to be 7790 nM; in assay [2] (setting [8]), 148 nM; in assay [3] (setting [8]), 1140 nM; in assay [4] (setting [8]), 5660 nM; in assay [5] (setting [8]), 4270 nM.
On to SVLRAVLPR, for which the equilibrium dissociation constant (Kd) was determined as 208 nM in assay [1] (setting [9]); 8.96 nM in assay [2] (setting [9]); 10.6 nM in assay [3] (setting [9]); 537 nM in assay [4] (setting [9]); 66.7 nM in assay [5] (setting [9]).
Take TLISSDGAR: the dissociation constant (Kd) in assay [1] (setting [6]) turned out to be 4090 nM; in assay [2] (setting [6]), 1400 nM; in assay [3] (setting [6]) it was 80.3 nM; in assay [4] (setting [6]) it was 198 nM; in assay [5] (setting [6]), 5.13 nM.
For TLSERISSK the same measures were 6.16 nM, 2.91 nM, 2310 nM, 9910 nM and 48.3 nM.
In the same order, the values of TSEKYSKGY are at least 78000 nM, at least 77900 nM, at least 77900 nM, at least 77700 nM and at least 77700 nM.
With TSVSAKQLR, the Kd in assay [1] (setting [6]) is at least 78000 nM; in assay [2] (setting [6]), 2810 nM; in assay [3] (setting [6]), 2600 nM; in assay [4] (setting [6]), 9110 nM; in assay [5] (setting [6]) it was 11.2 nM.
As for TTIKPVSYK, the dissociation constant Kd worked out at 2.04 nM in assay [1] (setting [8]); 0.759 nM in assay [2] (setting [8]); 103 nM in assay [3] (setting [8]); 144 nM in assay [4] (setting [8]); 1.5 nM in assay [5] (setting [8]).
